We go through one protein from article PMC8287830, “(S)-3-Hydroxybutyryl-CoA Dehydrogenase From the Autotrophic 3-Hydroxypropionate/4-Hydroxybutyrate Cycle in Nitrosopumilus maritimus” (Frontiers in Microbiology, 2021).

Data set [1] deals with the molecule itself. Nature of the data set: SEC; Superdex 200 Increase (24 ml), 0.75 ml/min, 20 mM Tris-HCl pH 7.8, 150 mM KCl; native mass from a standard curve (apoferritin, alcohol dehydrogenase, BSA, carbonic anhydrase). A general note: In gel filtration, larger molecules generally elute earlier.
Substrate in data set [2]: NC(=O)C1=CN([C@@H]2O[C@H](COP(=O)(O)OP(=O)(O)OC[C@H]3O[C@@H](n4cnc5c(N)ncnc54)[C@H](O)[C@@H]3O)[C@@H](O)[C@H]2O)C=CC1
The data set can be described thus: purified protein. Format: biochemical, Nitrosopumilus maritimus. The settings on record: 0.2 mM acetoacetyl-CoA, 100 mM Tris-HCl pH 7.8, 30°C, reverse reaction, monomeric enzyme.

Substrate in data set [3]: NC(=O)c1ccc[n+]([C@@H]2O[C@H](COP(=O)(O)OP(=O)(O)OC[C@H]3O[C@@H](n4cnc5c(N)ncnc54)[C@H](OP(=O)(O)O)[C@@H]3O)[C@@H](O)[C@H]2O)c1
The data set can be described thus: purified protein. In kind it is biochemical, Nitrosopumilus maritimus. Conditions: 0.2 mM (S)-3-hydroxybutyryl-CoA, 100 mM Tris-HCl pH 7.8, 30°C, forward reaction, monomeric enzyme.

Substrate in data set [4]: C[C@H](O)CC(=O)SCCNC(=O)CCNC(=O)[C@H](O)C(C)(C)COP(=O)(O)OP(=O)(O)OC[C@H]1O[C@@H](n2cnc3c(N)ncnc32)[C@H](O)[C@@H]1OP(=O)(O)O
Nature of the data set: purified protein. In kind it is biochemical, Nitrosopumilus maritimus. The settings on record: 2 mM NAD, 100 mM Tris-HCl pH 7.8, 30°C, forward reaction, monomeric enzyme.

Substrate in data set [5]: CC(=O)CC(=O)SCCNC(=O)CCNC(=O)[C@H](O)C(C)(C)COP(=O)(O)OP(=O)(O)OC[C@H]1O[C@@H](n2cnc3c(N)ncnc32)[C@H](O)[C@@H]1OP(=O)(O)O
Nature of the data set: purified protein. The settings on record: 0.5 mM NADH, 100 mM Tris-HCl pH 7.8, 30°C, reverse reaction, monomeric enzyme. In kind it is biochemical, Nitrosopumilus maritimus.

Substrate in data set [6]: NC(=O)c1ccc[n+]([C@@H]2O[C@H](COP(=O)(O)OP(=O)(O)OC[C@H]3O[C@@H](n4cnc5c(N)ncnc54)[C@H](O)[C@@H]3O)[C@@H](O)[C@H]2O)c1
The data set can be described thus: purified protein. In kind it is biochemical, Nitrosopumilus maritimus. Conditions: 0.2 mM (S)-3-hydroxybutyryl-CoA, 100 mM Tris-HCl pH 7.8, 30°C, forward reaction, monomeric enzyme.

B1: (S)-3-hydroxybutyryl-CoA dehydrogenase Nmar_1028 (enzyme, Nitrosopumilus maritimus SCM1, UniProt A9A3J2 1-379, looked up)
chain: MAVKNITILGSGVMGHGIAQVSATAGYNVVLRDIEQGFLDKAMEKIRWSLDKLVSKEKISKEEGDSIFGRITPVVDLKEAVKDAELVIEVVPEIMDLKKKVYAELDEVAAPEVIFASNTSTLPITEIANTTSRPDKFIGIHFFNPPQLMKLVEVIPGEKTSQEITDLTKDYVKSVNKQAVLCRKDVPGFIINRLFIPMVHEACYAKDRTGATLEEIDSAVKFNLGFPMGIFELADFTGMDVIHKATVEMHLRDKKVINPHPTVEKMFDEKKLGQKSGEGYYKYSDDKYERVELSQELAQKFNPIQLVANILNNAAWLVTNGASDIEEIEKAAQLGLGLKKPLFETAKEIGIKNIVDELNKLAEEHGEFYKPDPLLTSMQ
notes: (S)-3-hydroxybutyryl-CoA dehydrogenase Nmar_1028 of Nitrosopumilus maritimus strain SCM1; gene amplified from genomic DNA from the initiation codon to after the stop codon; predicted size 44.8 kDa; No removal of the His10 tag is described; also called HBDH; source: E. coli Rosetta 2 (DE3), purified (Ni-NTA)
Usually stoichiometry N stands for a count of units in the complex or per binding partner. A word on the Km: it is the concentration of substrate that gives half-maximal velocity. What is called Vmax is the top rate of the reaction or transport when substrate is in excess. As usually defined, the kcat/Km is the turnover number divided by the Michaelis constant. For orientation: kcat means the maximal rate divided by the concentration of active sites. As to B1, the “stoichiometry N” value in data set [1] came out at 2. Moreover, the Km in the data set “purified protein [2]” is 16 ± 6 µM; in “purified protein [3]”, 2920 ± 630 µM; in the data set “purified protein [4]”, 19 ± 2 µM; in the data set “purified protein [5]”, 26 ± 4 µM; in “purified protein [6]”, 100 ± 20 µM. Also, the maximum rate (Vmax) in the data set “purified protein [2]” was 113 µmol/min/mg; in “purified protein [3]”, 10.1 µmol/min/mg; in “purified protein [4]”, 98.6 µmol/min/mg; in the data set “purified protein [5]”, 145 µmol/min/mg; in the data set “purified protein [6]”, 84.4 µmol/min/mg. The kcat/Km in the data set “purified protein [2]” is 5.27e+06 M⁻¹ s⁻¹; in the data set “purified protein [3]” it was 3000 M⁻¹ s⁻¹; in “purified protein [4]”, 3.88e+06 M⁻¹ s⁻¹; in “purified protein [5]”, 4.04e+06 M⁻¹ s⁻¹; in “purified protein [6]” it was 630000 M⁻¹ s⁻¹. In addition, the kcat in the data set “purified protein [4]” stood at 74 s⁻¹; in the data set “purified protein [5]”, 108 s⁻¹.
